From patent publication US20210292422A1 (SURROZEN, published 2021)

How the values were obtained:
LRP6e3e4 = target: T1, LRP6e3e4 (UniProt O75581 631-1246); test: column 'Specificity (Clone name)' of the component table; method not given there
T1 construct: domain: e3e4; also called LRP6 E3E4 domain
T1 sequence (looked up): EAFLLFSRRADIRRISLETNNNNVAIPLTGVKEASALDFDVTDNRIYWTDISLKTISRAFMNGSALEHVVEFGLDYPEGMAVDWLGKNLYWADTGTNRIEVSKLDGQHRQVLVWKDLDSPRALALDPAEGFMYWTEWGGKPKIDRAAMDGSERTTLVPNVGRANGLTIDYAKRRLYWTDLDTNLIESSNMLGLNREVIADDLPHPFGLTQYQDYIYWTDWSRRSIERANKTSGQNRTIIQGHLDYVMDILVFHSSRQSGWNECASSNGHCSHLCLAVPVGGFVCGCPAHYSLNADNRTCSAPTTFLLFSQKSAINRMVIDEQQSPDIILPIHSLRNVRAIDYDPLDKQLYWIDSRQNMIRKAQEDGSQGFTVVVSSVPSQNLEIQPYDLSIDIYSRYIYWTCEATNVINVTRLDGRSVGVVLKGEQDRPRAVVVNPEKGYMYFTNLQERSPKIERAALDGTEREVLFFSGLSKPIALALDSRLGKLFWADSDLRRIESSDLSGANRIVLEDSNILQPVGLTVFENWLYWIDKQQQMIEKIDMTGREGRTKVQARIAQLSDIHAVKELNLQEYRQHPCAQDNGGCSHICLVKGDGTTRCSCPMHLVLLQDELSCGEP

Fzd7 CRD = Fzd7 CRD (UniProt O75084 44-163); test: BLI (Octet Red 96), biotinylated Fzd7 CRD on SA biosensor
Experimental: Following capture of biotinylated-Fzd7, the SA biosensor with captured biotinylated-Fzd7 was dipped into wells containing the relevant antibodies at 7 different concentrations in running buffer plus a well with only running buffer as a reference channel. KD was determined by global fitting.

Frizzled 7 (Fzd7) = Frizzled 7 (Fzd7) (UniProt O75084 44-163); test: BLI (Octet), FIG. 15A
LRP6e1e2 = target: T2, LRP6e1e2 (UniProt O75581 20-630); test: column 'Specificity (Clone name)' of the component table; method not given there
T2 construct: domain: e1e2; also called LRP6 E1E2 domains
T2 sequence (looked up): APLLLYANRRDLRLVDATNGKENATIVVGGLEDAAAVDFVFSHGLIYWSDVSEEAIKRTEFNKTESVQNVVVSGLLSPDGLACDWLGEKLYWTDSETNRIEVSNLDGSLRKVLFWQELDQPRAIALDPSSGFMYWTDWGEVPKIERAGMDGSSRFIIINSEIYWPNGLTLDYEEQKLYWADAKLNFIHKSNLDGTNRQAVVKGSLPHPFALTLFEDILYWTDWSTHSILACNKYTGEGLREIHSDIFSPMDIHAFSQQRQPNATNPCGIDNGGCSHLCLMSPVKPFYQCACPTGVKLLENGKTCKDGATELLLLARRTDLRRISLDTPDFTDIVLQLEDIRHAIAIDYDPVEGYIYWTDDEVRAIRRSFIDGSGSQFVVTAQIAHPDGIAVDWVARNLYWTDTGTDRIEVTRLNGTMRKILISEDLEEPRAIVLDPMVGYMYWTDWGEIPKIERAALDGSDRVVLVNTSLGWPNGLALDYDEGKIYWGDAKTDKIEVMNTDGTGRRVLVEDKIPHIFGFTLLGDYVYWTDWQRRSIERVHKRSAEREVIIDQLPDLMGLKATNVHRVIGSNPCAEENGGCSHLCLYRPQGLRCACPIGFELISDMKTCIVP

B1: L2: antiLRP6E3E4 (G211) scFv (scFv)
scFv: EVQLVESGGGLVQPGGSLRLSCAASGFTFTSYYISWVRQAPGKGLEWVAEISPYSGSTYYADSVKGRFTISADTSKNTAYLQMNSLRAEDTAVYYCALRARPPIRLHPRGSVMDYWGQGTLVTVSSGSAASGSSGGSSSGADIQMTQSPSSLSASVGDRVTITCRASQDVSTAVAWYQQKPGKAPKLLIYSASFLYSGVPSRFSGSGSGTDFTLTISSLQPEDFATYYCQQSYTTPPTFGQGTKVEIK
notes: also called YW211.31.57
B1: binds (LRP6e3e4).

B2: 1291-3 (bispecific antibody, human IgG1, kappa, L234A L235A)
light: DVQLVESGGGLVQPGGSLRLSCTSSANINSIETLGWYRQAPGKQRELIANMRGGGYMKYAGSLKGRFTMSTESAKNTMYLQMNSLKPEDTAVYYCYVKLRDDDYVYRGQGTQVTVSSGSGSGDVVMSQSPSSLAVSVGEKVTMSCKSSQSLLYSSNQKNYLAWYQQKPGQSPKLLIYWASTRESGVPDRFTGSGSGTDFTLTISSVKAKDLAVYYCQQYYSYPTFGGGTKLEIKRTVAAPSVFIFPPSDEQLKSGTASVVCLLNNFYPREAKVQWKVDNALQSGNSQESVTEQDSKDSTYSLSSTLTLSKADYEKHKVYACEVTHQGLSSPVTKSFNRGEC
heavy: EVQLVESGGGLVKPGGSLKLSCAASGFTFSSYAMSWVRQTPEKRLEWVATISDGGSYTRYPDKLKGRFTISRDNAKNNLYLQMSHLKSEDTAMYYCARVGGRRDYFDYWGQGTTLTVSSASTKGPSVFPLAPSSKSTSGGTAALGCLVKDYFPEPVTVSWNSGALTSGVHTFPAVLQSSGLYSLSSVVTVPSSSLGTQTYICNVNHKPSNTKVDKKVEPKSCDKTHTCPPCPAPEAAGGPSVFLFPPKPKDTLMISRTPEVTCVVVDVSHEDPEVKFNWYVDGVEVHNAKTKPREEQYNSTYRVVSVLTVLHQDWLNGKEYKCKVSNKALGAPIEKTISKAKGQPREPQVYTLPPSREEMTKNQVSLTCLVKGFYPSDIAVEWESNGQPENNYKTTPPVLDSDGSFFLYSKLTVDKSRWQQGNVFSCSVMHEALHNHYTQKSLSLSPGK
B2: no binding (Fzd7 CRD).

B3: F2 (R2H1) (scFv)
scFv: EVQLVESGGGLVQPGGSLRLSCAASGFNISSSYIHWVRQAPGKGLEWVAYIYSSYGSTYYADSVKGRFTISADTSKNTAYLQMNSLRAEDTAVYYCARASWYALDYWGQGTLVTVSSGSAASGSSGGSSSGADIQMTQSPSSLSASVGDRVTITCRASQSVSSAVAWYQQKPGKAPKLLIYSASSLYSGVPSRFSGSRSGTDFTLTISSLQPEDFATYYCQQYWYGVAPITFGQGTKVEIK
notes: also called antiFZD1,2,7
B3: binds (Frizzled 7 (Fzd7)).

B4: L1: antiLRP6E1E2 (1115.3) scFv (scFv)
scFv: DVKLVESGGGLVKLGGSLRLSCAASGFSFSTSYMSWVRQTPEKRLELVAAINLNGGSTYYSDTVKGRFTISRDNAKNTLYLQMSSLKSEDTAFYYCASELAGYGTPFAYWGQGTLVTVSAGSAASGSSGGSSSGADIVLTQSPATLSVTPGDSVSLSCKASQSISYNLHWYQQKSHESPRLLIKYTSQSISGIPSRFSGSGSGTDFTLTINNVETEDFGMYFCQQSNSWPLTFGAGTKLEVK
B4: binds (LRP6e1e2).

B5: 1791-3 (bispecific antibody, human IgG1, kappa, L234A L235A)
light: DVQLVESGGGLVQPGGSLRLSCTSSANINSIETLGWYRQAPGKQRELIANMRGGGYMKYAGSLKGRFTMSTESAKNTMYLQMNSLKPEDTAVYYCYVKLRDDDYVYRGQGTQVTVSSGSGSGDIVMTQSPKSMSMSVGERVTLRCKASENVLNYVSWYQQKPEQSPKLLIYGASNRYTGVPDRFTGSGSATDFTLTISSVQAEDLADYHCGQSYRYPTFGAGTKLELKRTVAAPSVFIFPPSDEQLKSGTASVVCLLNNFYPREAKVQWKVDNALQSGNSQESVTEQDSKDSTYSLSSTLTLSKADYEKHKVYACEVTHQGLSSPVTKSFNRGEC
heavy: EVQPVESGGGLVQPKGSLKLSCAASGFTFNTYAMHWVRQAPGKGLEWVARIRSKSNNYAKNYDDSVKDRFTISRDDSQSMLYLQMNNLKTEDTAMYYCVRENYGGRFDYWGQGTTLTVSSASTKGPSVFPLAPSSKSTSGGTAALGCLVKDYFPEPVTVSWNSGALTSGVHTFPAVLQSSGLYSLSSVVTVPSSSLGTQTYICNVNHKPSNTKVDKKVEPKSCDKTHTCPPCPAPEAAGGPSVFLFPPKPKDTLMISRTPEVTCVVVDVSHEDPEVKFNWYVDGVEVHNAKTKPREEQYNSTYRVVSVLTVLHQDWLNGKEYKCKVSNKALGAPIEKTISKAKGQPREPQVYTLPPSREEMTKNQVSLTCLVKGFYPSDIAVEWESNGQPENNYKTTPPVLDSDGSFFLYSKLTVDKSRWQQGNVFSCSVMHEALHNHYTQKSLSLSPGK
B5: no binding (Fzd7 CRD).
